Source: article PMC9634612, “Rapid and efficient room-temperature serial synchrotron crystallography using the CFEL TapeDrive” (IUCrJ, 2022)

Biological target: the molecule itself
Assay: crystal structure; room-temperature (293 K) serial synchrotron crystallography with the CFEL TapeDrive, 2.3 Å, space group I222, one monomer in the asymmetric unit, tetramer generated by symmetry; UOX with 5PMUA bound

B1: Aspergillus flavus urate oxidase (enzyme)
chain: MSAVKAARYGKDNVRVYKVHKDEKTGVQTVYEMTVCVLLEGEIETSYTKADNSVIVATDSIKNTIYITAKQNPVTPPELFGSILGTHFIEKYNHIHAAHVNIVCHRWTRMDIDGKPHPHSFIRDSEEKRNVQVDVVEGKGIDIKSSLSGLTVLKSTNSQFWGFLRDEYTTLKETWDRILSTDVDATWQWKNFSGLQEVRSHVPKFDATWATAREVTLKTFAEDNSASVQATMYKMAEQILARQQLIETVEYSLPNKHYFEIDLSWHKGLQNTGKNAEVFAPQSDPNGLIKCTVGRSSLKSKL
notes: Urate oxidase of Aspergillus flavus, untagged, from a codon-optimized synthetic cDNA in pET24b; One monomer in the asymmetric unit; the tetramer is generated by crystal symmetry; also called UOX; cofactor-free A. flavus urate oxidase
  stoichiometry N: 4
